T1: PUF4 RNA-binding domain (Saccharomyces cerevisiae, UniProt P25339 537-888)
T1 sequence: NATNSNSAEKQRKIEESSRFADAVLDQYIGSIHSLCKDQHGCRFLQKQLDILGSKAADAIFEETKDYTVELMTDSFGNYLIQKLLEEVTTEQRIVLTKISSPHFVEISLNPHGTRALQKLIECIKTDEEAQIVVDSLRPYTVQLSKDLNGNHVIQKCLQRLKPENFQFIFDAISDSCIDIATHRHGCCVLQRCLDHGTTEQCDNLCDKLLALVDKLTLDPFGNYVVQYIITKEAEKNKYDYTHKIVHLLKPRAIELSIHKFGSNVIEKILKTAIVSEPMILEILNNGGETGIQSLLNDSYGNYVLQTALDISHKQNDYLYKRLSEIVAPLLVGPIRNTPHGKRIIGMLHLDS


Biological target: T1, PUF4 RNA-binding domain
Assay: Mg; RNA-MaP; 20 mM Na-HEPES pH 7.4, 30 mM KOAc, 0.75 mM MgCl2, 0.1% Tween-20, 5% glycerol, 0.1 mg/mL BSA, 2 mM DTT; 25 C; 0.0125-409.6 nM protein
Details: tags: N-His6-TEV cleaved; C-SNAP kept, Cy3B-labelled; label: tethered on chip by stalled RNA polymerase

Row | Binder | Kd
1 | ACAAACGCACACUUAUUAUAACAAAC (ssRNA) [Id_ii_S3_P5E.4_K5.3_C5.2_[C-2G]_[T-1C]_H5.3_A5.1_F5.1_T5.2] | > 2300 nM
2 | ACAAACGAACACUUAUUAACACAAAC (ssRNA) [Id_ii_S3_P5E.4_K5.3_C5.2_[C-2G]_[T-1A]_H5.3_A5.1_F5.1_T5.2_[T11A]_[A12C]] | > 2300 nM
3 | ACAAACGAACACUUAUUAUCACAAAC (ssRNA) [Id_ii_S3_P5E.4_K5.3_C5.2_[C-2G]_[T-1A]_H5.3_A5.1_F5.1_T5.2_[A12C]] | > 2300 nM
4 | UCUCUUUCUGUUAUUAUCUCUU (ssRNA) [Ib_S1_P5E.1_K5.1_C5.1_H5.1_[G2C]_[A4G]_A5.1_F5.1_T5.1] | > 2300 nM
5 | ACAAACGUACACUUAUUACCACAAAC (ssRNA) [Id_ii_S3_P5E.4_K5.3_C5.2_[C-2G]_H5.3_A5.1_F5.1_T5.2_[T11C]_[A12C]] | 972 nM
6 | ACAAACGUACACUUAUUAAUACAAAC (ssRNA) [Id_ii_S3_P5E.4_K5.3_C5.2_[C-2G]_H5.3_A5.1_F5.1_T5.2_[T11A]_[A12T]] | 707 nM
7 | ACAAACGUACACUUAUUAUCACAAAC (ssRNA) [Id_ii_S3_P5E.4_K5.3_C5.2_[C-2G]_H5.3_A5.1_F5.1_T5.2_[A12C]] | 1180 nM
8 | ACAAACGUACACUUAUUAUUACAAAC (ssRNA) [Id_ii_S3_P5E.4_K5.3_C5.2_[C-2G]_H5.3_A5.1_F5.1_T5.2_[A12T]] | 702 nM
9 | ACAAACUGACACUUAUUACGACAAAC (ssRNA) [Id_ii_S3_P5E.4_K5.3_C5.2_[C-2T]_[T-1G]_H5.3_A5.1_F5.1_T5.2_[T11C]_[A12G]] | > 2300 nM
10 | ACAAACUGACACUUAUUACCACAAAC (ssRNA) [Id_ii_S3_P5E.4_K5.3_C5.2_[C-2T]_[T-1G]_H5.3_A5.1_F5.1_T5.2_[T11C]_[A12C]] | > 2300 nM
11 | ACAAACUGACACUUAUUAAGACAAAC (ssRNA) [Id_ii_S3_P5E.4_K5.3_C5.2_[C-2T]_[T-1G]_H5.3_A5.1_F5.1_T5.2_[T11A]_[A12G]] | > 2300 nM
12 | ACAAACUGACACUUAUUAUAACAAAC (ssRNA) [Id_ii_S3_P5E.4_K5.3_C5.2_[C-2T]_[T-1G]_H5.3_A5.1_F5.1_T5.2] | > 2300 nM
13 | ACAAACUCACACUUAUUAGCACAAAC (ssRNA) [Id_ii_S3_P5E.4_K5.3_C5.2_[C-2T]_[T-1C]_H5.3_A5.1_F5.1_T5.2_[T11G]_[A12C]] | > 2300 nM
14 | ACAAACUCACACUUAUUACGACAAAC (ssRNA) [Id_ii_S3_P5E.4_K5.3_C5.2_[C-2T]_[T-1C]_H5.3_A5.1_F5.1_T5.2_[T11C]_[A12G]] | > 2300 nM
15 | UCUCUUUCUCUUAUUAUCUCUU (ssRNA) [Ib_S1_P5E.1_K5.1_C5.1_H5.1_[G2C]_[A4C]_A5.1_F5.1_T5.1] | > 2300 nM
16 | ACAAACUCACACUUAUUACAACAAAC (ssRNA) [Id_ii_S3_P5E.4_K5.3_C5.2_[C-2T]_[T-1C]_H5.3_A5.1_F5.1_T5.2_[T11C]] | > 2300 nM

Row | Binder | Kd
17 | ACAAACUCACACUUAUUAAUACAAAC (ssRNA) [Id_ii_S3_P5E.4_K5.3_C5.2_[C-2T]_[T-1C]_H5.3_A5.1_F5.1_T5.2_[T11A]_[A12T]] | > 2300 nM
18 | ACAAACUCACACUUAUUAAAACAAAC (ssRNA) [Id_ii_S3_P5E.4_K5.3_C5.2_[C-2T]_[T-1C]_H5.3_A5.1_F5.1_T5.2_[T11A]] | > 2300 nM
19 | ACAAACUCACACUUAUUAUGACAAAC (ssRNA) [Id_ii_S3_P5E.4_K5.3_C5.2_[C-2T]_[T-1C]_H5.3_A5.1_F5.1_T5.2_[A12G]] | > 2300 nM
20 | ACAAACUAACACUUAUUACAACAAAC (ssRNA) [Id_ii_S3_P5E.4_K5.3_C5.2_[C-2T]_[T-1A]_H5.3_A5.1_F5.1_T5.2_[T11C]] | > 2300 nM
21 | ACAAACUUACACUUAUUACGACAAAC (ssRNA) [Id_ii_S3_P5E.4_K5.3_C5.2_[C-2T]_H5.3_A5.1_F5.1_T5.2_[T11C]_[A12G]] | > 2300 nM
22 | ACAAACUUACACUUAUUAACACAAAC (ssRNA) [Id_ii_S3_P5E.4_K5.3_C5.2_[C-2T]_H5.3_A5.1_F5.1_T5.2_[T11A]_[A12C]] | > 2300 nM
23 | ACAAACUUACACUUAUUAUCACAAAC (ssRNA) [Id_ii_S3_P5E.4_K5.3_C5.2_[C-2T]_H5.3_A5.1_F5.1_T5.2_[A12C]] | > 2300 nM
24 | ACAAACAGACACUUAUUAGAACAAAC (ssRNA) [Id_ii_S3_P5E.4_K5.3_C5.2_[C-2A]_[T-1G]_H5.3_A5.1_F5.1_T5.2_[T11G]] | > 2300 nM
25 | ACAAACAGACACUUAUUACCACAAAC (ssRNA) [Id_ii_S3_P5E.4_K5.3_C5.2_[C-2A]_[T-1G]_H5.3_A5.1_F5.1_T5.2_[T11C]_[A12C]] | > 2300 nM
26 | UCUCUUUCUUUUAUUAUCUCUU (ssRNA) [Ib_S1_P5E.1_K5.1_C5.1_H5.1_[G2C]_[A4T]_A5.1_F5.1_T5.1] | > 2300 nM
27 | ACAAACAGACACUUAUUACAACAAAC (ssRNA) [Id_ii_S3_P5E.4_K5.3_C5.2_[C-2A]_[T-1G]_H5.3_A5.1_F5.1_T5.2_[T11C]] | > 2300 nM
28 | ACAAACAGACACUUAUUAUCACAAAC (ssRNA) [Id_ii_S3_P5E.4_K5.3_C5.2_[C-2A]_[T-1G]_H5.3_A5.1_F5.1_T5.2_[A12C]] | > 2300 nM
29 | ACAAACAGACACUUAUUAUUACAAAC (ssRNA) [Id_ii_S3_P5E.4_K5.3_C5.2_[C-2A]_[T-1G]_H5.3_A5.1_F5.1_T5.2_[A12T]] | > 2300 nM
30 | ACAAACACACACUUAUUACUACAAAC (ssRNA) [Id_ii_S3_P5E.4_K5.3_C5.2_[C-2A]_[T-1C]_H5.3_A5.1_F5.1_T5.2_[T11C]_[A12T]] | > 2300 nM
31 | ACAAACACACACUUAUUAACACAAAC (ssRNA) [Id_ii_S3_P5E.4_K5.3_C5.2_[C-2A]_[T-1C]_H5.3_A5.1_F5.1_T5.2_[T11A]_[A12C]] | > 2300 nM

Source: article PMC9352680, “A comprehensive thermodynamic model for RNA binding by the Saccharomyces cerevisiae Pumilio protein PUF4”
